Non-standard residues stand in square brackets, D forms with d. No end group written: not given here. Aib = CC(C)(N)C(=O)O

For one assay, the target named is T1, human GIP receptor (Homo sapiens, UniProt P48546).
T1 construct: expressed in transfected cells; host or cells: CHO (Chinese hamster ovary)
T1 sequence (P48546 22-466): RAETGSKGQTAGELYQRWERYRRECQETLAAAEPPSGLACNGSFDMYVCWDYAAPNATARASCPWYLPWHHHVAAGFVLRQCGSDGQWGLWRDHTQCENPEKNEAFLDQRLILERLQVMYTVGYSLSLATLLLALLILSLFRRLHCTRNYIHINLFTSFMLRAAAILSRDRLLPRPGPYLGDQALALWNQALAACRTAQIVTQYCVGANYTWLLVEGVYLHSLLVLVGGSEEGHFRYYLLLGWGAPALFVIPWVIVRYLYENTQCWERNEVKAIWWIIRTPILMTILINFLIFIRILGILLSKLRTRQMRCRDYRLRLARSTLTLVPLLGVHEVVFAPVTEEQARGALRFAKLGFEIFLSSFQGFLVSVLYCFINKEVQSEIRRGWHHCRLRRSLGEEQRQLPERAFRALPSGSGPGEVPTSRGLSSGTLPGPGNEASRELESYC
The assay can be described thus: In vitro activity of long-acting GIP conjugates: cAMP accumulation in CHO cells expressing human GIP receptor. It is filed as cell-based. Conditions: relative potency from cAMP EC50, CHO cells expressing human GIP receptor; PEG-immunoglobulin Fc conjugates. As for the experimental part: To measure the activity of the long-acting GIP conjugates prepared in Example 3, a method of measuring cell activity in vitro using a cell line transformed with the GIP receptor was used in the same manner as in Example 2.
In detail, to measure the activity of the long-acting GIP derivatives in the human GIP receptors, human GIP was serially diluted from 16 nM to 0.000015 nM by 4 folds, and the long-acting GIP derivatives prepared in Example 1 were each serially diluted from 50 nM to 0.000048 nM by 4 folds. The culture medium was removed from the cultured CHO cells where the human GIP receptors were expressed, 5 μl of each of the serially diluted materials was added to the cells, and then, 5 μl of buffer containing cAMP antibody was added thereto, followed by incubation at room temperature for 15 minutes. Next, the cells were lysed by adding 10 μl of detection mix containing cell lysis buffer, and then allowed for a reaction at room temperature for 90 minutes. The cell lysate obtained by the completion of the reaction was applied to the LANCE cAMP kit (PerkinElmer, USA) to calculate the EC50 value through the accumulated cAMP to be compared with each other.
In general terms: cAMP levels reflect the balance of adenylyl cyclase and phosphodiesterase activity.

In assay [1] the test system is THP-1 cell line. The assay can be described thus: TNF-α concentration in medium of LPS-treated THP-1 cell line (ELISA). It is filed as cell-based, human. To be noted: THP-1, LPS 0.1 pg/mL; native GIP 1 μM, long-acting GIP derivative 0.1 μM or 1 μM; FIG. 2B. From the text:
Here, the medium was quantified by using Human TNF alpha ELISA Kit (Abcam, US).

The test system of assay [2] is THP-1 cell line. The assay can be described thus: Expression of inflammation-related genes in LPS-treated THP-1 cell line (real-time PCR). To be noted: THP-1, LPS 1 μg/mL; native GIP 10 μM, long-acting GIP derivative 1 or 10 μM; FIG. 2A. It counts as cell-based, human. From the text: To confirm the in vitro anti-inflammatory effect of the long-acting GIP derivative conjugate on vasculitis, a human monocyte/macrophage cell line, THP-1 cell line, was used. A macrophage is known to secrete cytokines and chemokines in the early stage of infection in vasculitis-infected tissue, induce the progress of inflammation by utilizing other immune cells, and form giant cells. Therefore, identification of the anti-inflammatory effect in macrophages is referred to as an appropriate in vitro system for evaluating the efficacy on vasculitis.
The THP-1 cell line was cultured in RPMI 1640 medium supplemented with 10% fetal bovine serum (FBS), 100 μg/mL of streptomycin, 100 U/mL of penicillin, and […] of β-mercaptoethanol, under conditions of a temperature of 37° C. and 5% carbon dioxide. […] For use as the long-acting GIP derivative, the long-acting GIP conjugate (SEQ ID NO: 17) prepared in Example 3 was used.
RNA was isolated from the completely treated THP-1 cell line by using the RNeasy Mini Kit (Qiagen, US), and then cDNA was synthesized by using the iScript™ cDNA Synthesis Kit (Bio-rad, U.S.). The synthesized cDNA was referred to confirm the expression levels of inflammation-related genes by using the QuantStudio 6 Flex Real-Time PCR System (Applied Biosystems, U.S.). Here, the Delta Ct method was used, and beta-actin was used as a housekeeping gene. […]
For orientation: Real-time PCR tracks product formation cycle by cycle.

Consider “YAibEGT FISDY SIAibLD KQAAAib EFVNW LLAibGH PSSGA PPPSC (Y[Aib]EGTFISDYSI[Aib]LDKQAA[Aib]EFVNWLL[Aib]GHPSSGAPPPSC) [SEQ ID NO: 24, GIP derivative peptide]”, for which the “In vitro activity of long-acting GIP derivative compared to human native GIP in human GIP receptor (%)” value (shortened to “In vitro activity … (%)”) with human GIP receptor was found to be 123.3%.

“YAibEGT FISDYSIAMDAIAQQDFVNWLLAQKGKKNDWKHNITQC (Y[Aib]EGTFISDYSIAMDAIAQQDFVNWLLAQKGKKNDWKHNITQC) [SEQ ID NO: 11, GIP derivative peptide]”: the “In vitro activity … (%)” value with human GIP receptor is recorded as 84.8%.

As for “YAibEGT FISDYSIALEKQAQQDFVNWLLAGGPSSGAPPPSC (Y[Aib]EGTFISDYSIALEKQAQQDFVNWLLAGGPSSGAPPPSC) [SEQ ID NO: 17, GIP derivative peptide]”, in the assay with human GIP receptor, the “In vitro activity … (%)” value was 153.2%.

With “YAibEGT FISDY SIAibLD KQAAAib EFVNW LLAibGG PSSGA PPPSC (Y[Aib]EGTFISDYSI[Aib]LDKQAA[Aib]EFVNWLL[Aib]GGPSSGAPPPSC) [SEQ ID NO: 21, GIP derivative peptide]”, in the assay with human GIP receptor, the “In vitro activity … (%)” value stood at 148.5%.

On to “glucose-dependent insulinotropic polypeptide [native GIP]”, for which, in the assay with THP-1 cell line [1], the “concentration of TNF-α in the medium” value is on record as “decreased”. For the same substance, in the assay with THP-1 cell line [2], the “expression levels of inflammation-related genes IL-6, IL-12, IL-1β and TNF-α” value was “decreased”.
